From publication PMC8660799, “Cryo-EM reveals unique structural features of the FhuCDB Escherichia coli ferrichrome importer” (Communications Biology, 2021)
Positions count from the first letter of the chain named.

Key:
FhuCB wild-type = molecular target: T1, FhuCB wild-type (Escherichia coli, UniProt P07821 1-265; P06972 1-660, red-tris-NTA 2nd generation dye on the His-tag); experiment: MST; 40 nM FhuCB in detergent, His-tag labelled with red-tris-NTA 2nd generation dye; serial dilution of 30 μM FhuD without substrate; no ATP-Mg; Monolith NT.115pico, 20% LED power, medium MST power; details: both partners purified
T1 construct: FhuC, ATPase subunit, Escherichia coli; whole operon cloned from the genome, FhuD gene deleted; thrombin site after the His-tag; FhuB, membrane subunit, Escherichia coli, 660 residues; also called FhuCB subcomplex; source: E. coli BL21(DE3) C43, purified (TALON, Superose 6 gel filtration) in LMNG; not shown: His-tag, N-terminal, kept; copies: 2 + 1
T1 sequence (looked up) 1: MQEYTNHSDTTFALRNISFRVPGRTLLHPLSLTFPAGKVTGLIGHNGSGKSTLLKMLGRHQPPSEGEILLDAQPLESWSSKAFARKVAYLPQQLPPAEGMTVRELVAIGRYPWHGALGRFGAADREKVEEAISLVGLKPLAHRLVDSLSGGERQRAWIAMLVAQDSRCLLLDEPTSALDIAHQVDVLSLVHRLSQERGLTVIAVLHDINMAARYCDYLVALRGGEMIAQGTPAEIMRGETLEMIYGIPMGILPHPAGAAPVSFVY
T1 sequence (looked up) 2: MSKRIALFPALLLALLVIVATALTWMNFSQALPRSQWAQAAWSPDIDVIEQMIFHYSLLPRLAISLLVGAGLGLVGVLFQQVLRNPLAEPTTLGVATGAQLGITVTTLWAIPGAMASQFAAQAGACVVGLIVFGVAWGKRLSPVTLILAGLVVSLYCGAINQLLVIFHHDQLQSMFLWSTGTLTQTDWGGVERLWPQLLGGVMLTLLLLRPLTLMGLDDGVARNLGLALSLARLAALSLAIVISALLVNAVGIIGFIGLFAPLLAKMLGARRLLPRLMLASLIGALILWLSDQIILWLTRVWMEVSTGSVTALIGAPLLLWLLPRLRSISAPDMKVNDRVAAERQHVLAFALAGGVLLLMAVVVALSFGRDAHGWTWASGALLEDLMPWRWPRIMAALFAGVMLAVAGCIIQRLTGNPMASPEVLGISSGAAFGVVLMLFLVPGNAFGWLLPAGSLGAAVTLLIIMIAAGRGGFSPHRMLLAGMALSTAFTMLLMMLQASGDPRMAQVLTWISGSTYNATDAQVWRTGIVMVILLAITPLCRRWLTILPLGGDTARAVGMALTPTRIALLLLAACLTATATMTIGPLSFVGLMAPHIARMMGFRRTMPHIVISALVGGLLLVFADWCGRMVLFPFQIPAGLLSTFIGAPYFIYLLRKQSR

FhuCB with FhuB R390A = molecular target: T2, FhuCB with FhuB R390A (Escherichia coli, UniProt P07821 1-265; P06972 1-660, R390A, red-tris-NTA 2nd generation dye on the His-tag); experiment: MST; 40 nM FhuCB (wild type or FhuB mutant) in detergent, His-tag labelled with red-tris-NTA 2nd generation dye; serial dilution of 1.6 μM FhuD with substrate ferrichrome; with ATP-Mg; Monolith NT.115pico, 20% LED power, medium MST power; details: both partners purified
T2 construct: FhuC, ATPase subunit, Escherichia coli; as in Dm2; FhuB, membrane subunit, Escherichia coli, 660 residues; Mutant made on the FhuCB-pET15b construct by direct mutagenesis; source: E. coli BL21(DE3) C43, purified (TALON, Superose 6 gel filtration) in LMNG; not shown: His-tag, N-terminal, kept; copies: 2 + 1
T2 sequence (looked up) 1: T1 sequence (looked up) 1
T2 sequence (looked up) 2: T1 sequence (looked up) 2 with R390A

B1: FhuD (natural protein, Escherichia coli)
chain: AAIDPNRIVALEWLPVELLLALGIVPYGVADTINYRLWVSEPPLPDSVIDVGLRTEPNLELLTEMKPSFMVWSAGYGPSPEMLARIAPGRGFNFSDGKQPLAMARKSLTEMADLLNLQSAAETHLAQYEDFIRSMKPRFVKRGARPLLLTTLIDPRHMLVFGPNSLFQEILDEYGIPNAWQGETNFWGSTAVSIDRLAAYKDVDVLCFDHDNSKDMDALMATPLWQAMPFVRAGRFQRVPAVWFYGATLSAMHFVRVLDNAIGGKA
notes: In 'FhuD-ferrichrome' the protein was loaded with the small molecule ferrichrome; also called FhuD-ferrichrome (when loaded with ferrichrome)
- Kd (FhuCB wild-type): 1.62 µM
- Kd (FhuCB with FhuB R390A): 0.0758 µM
